Measurements reported in article doi:10.1101/2025.05.06.651509 (bioRxiv, 2025).

Biological target: the molecule itself
Experiment: MST

Protein	binding result
recombinant TSC22D4 (natural protein, human, UniProt Q9Y3Q8 1-395, looked up, RED-tris-NTA dye on the His tag (labelled copy only)) MSGGKKKSSFQITSVTTDYEGPGSPGASDPPTPQPPTGPPPRLPNGEPSPDPGGKGTPRNGSPPPGAPSSRFRVVKLPHGLGEPYRRGRWTCVDVYERDLEPHSFGGLLEGIRGASGGAGGRSLDSRLELASLGLGAPTPPSGLSQGPTSWLRPPPTSPGPQARSFTGGLGQLVVPSKAKAEKPPLSASSPQQRPPEPETGESAGTSRAATPLPSLRVEAEAGGSGARTPPLSRRKAVDMRLRMELGAPEEMGQVPPLDSRPSSPALYFTHDASLVHKSPDPFGAVAAQKFSLAHSMLAISGHLDSDDDSGSGSLVGIDNKIEQAMDLVKSHLMFAVREEVEVLKEQIRELAERNAALEQENGLLRALASPEQLAQLPSSGVPRLGPPAPNGPSV	binds
TSC22D4 I322W (natural protein, human, UniProt Q9Y3Q8 1-395, looked up) MSGGKKKSSFQITSVTTDYEGPGSPGASDPPTPQPPTGPPPRLPNGEPSPDPGGKGTPRNGSPPPGAPSSRFRVVKLPHGLGEPYRRGRWTCVDVYERDLEPHSFGGLLEGIRGASGGAGGRSLDSRLELASLGLGAPTPPSGLSQGPTSWLRPPPTSPGPQARSFTGGLGQLVVPSKAKAEKPPLSASSPQQRPPEPETGESAGTSRAATPLPSLRVEAEAGGSGARTPPLSRRKAVDMRLRMELGAPEEMGQVPPLDSRPSSPALYFTHDASLVHKSPDPFGAVAAQKFSLAHSMLAISGHLDSDDDSGSGSLVGIDNKWEQAMDLVKSHLMFAVREEVEVLKEQIRELAERNAALEQENGLLRALASPEQLAQLPSSGVPRLGPPAPNGPSV	binds
